Reference: publication PMC6779109, “The Glutamate Receptor-Like Protein GLR3.7 Interacts With 14-3-3ω and Participates in Salt Stress Response in Arabidopsis thaliana” (Frontiers in Plant Science, 2019)
Values belong to the binder of their own block, whether it stands above or below them. Where no end group is shown, it is not given here.

Biological target: T1, 6His-14-3-3ω recombinant protein (Arabidopsis thaliana, UniProt Q01525 1-259)
T1 construct: 14-3-3ω (GF14/omega) of Arabidopsis thaliana; also called At14-3-3ω; GF14/omega; source: E. coli, purified (Ni-NTA)
T1 sequence (looked up): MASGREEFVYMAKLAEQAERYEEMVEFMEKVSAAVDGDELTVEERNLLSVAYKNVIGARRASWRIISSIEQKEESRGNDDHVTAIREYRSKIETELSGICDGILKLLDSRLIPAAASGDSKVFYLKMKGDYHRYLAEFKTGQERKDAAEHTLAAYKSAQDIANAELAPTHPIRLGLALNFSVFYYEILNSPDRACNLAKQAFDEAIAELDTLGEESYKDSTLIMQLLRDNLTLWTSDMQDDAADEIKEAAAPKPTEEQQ
Assay: quartz crystal microbalance; GST fusion peptide coated on the sensor to saturation, 6His-14-3-3ω injected into PBS; AFFINIX QN μ, Kd by AQUA software
Conditions: both partners purified

Kd: 2.31 nM
B1: Phosphorylated GST-GLR3.7 P0 recombinant fusion peptide (peptide)
chain: RYRRMERTSSMPRA
modifications: also: phosphorylated, site not given here, fused to GST
notes: C-terminal fragment of AtGLR3.7 holding Thr-858, Ser-859 and Ser-860; also called G-P0-phosphorylated fusion peptide; phosphorylated G-GLR3.7 P0; not shown: RFP (from the NRV vector)

Kd: 1770 nM
B2: GST-GLR3.7 P0 recombinant fusion peptide (nonphosphorylated) (peptide)
chain: RYRRMERTSSMPRA
modifications: also: GST fusion
notes: C-terminal fragment of AtGLR3.7 holding Thr-858, Ser-859 and Ser-860; Cloned between AscI and NotI of the NRV vector (GST, RFP, Strep-tags; Curran et al., 2011) with the amino acids APG after the restriction site; fusion protein about 55 kD; also called G-P0; G-GLR3.7 P0; not shown: RFP (from the NRV vector)
